One series addresses T1, GST-CTBP2 (UniProt P56546 1-445).
T1 construct: also called GST-tagged Ctbp2; source: E. coli BL21 DE3 pLysS, purified (glutathione Sepharose 4B)
Briefly: pull-down; recombinant truncated FLAG-Suz12 and GST-CTBP2 incubated in vitro; pull down with glutathione Sepharose. The following applies: both partners purified.

Series [1] concerns the molecule itself. Briefly: pull-down; 1 ug GST-tagged and 1 ug His6-tagged recombinant Ctbp2, pulled down with GSH beads; 25 mM Tris-Cl pH 7.5, 0.1% NP-40, 150 mM NaCl, NADH, BSA, 10% glycerol, 4 C; for the phosphorylated form after in vitro phosphorylation with HA-Chk2.

Here are results for 2 molecules from PMC11662665, “Phosphorylation-mediated disassembly of C-terminal binding protein 2 tetramer impedes epigenetic silencing of pluripotency in mouse embryonic stem cells” (Nucleic Acids Research, 2024).

T1 sequence (P56546 whole entry): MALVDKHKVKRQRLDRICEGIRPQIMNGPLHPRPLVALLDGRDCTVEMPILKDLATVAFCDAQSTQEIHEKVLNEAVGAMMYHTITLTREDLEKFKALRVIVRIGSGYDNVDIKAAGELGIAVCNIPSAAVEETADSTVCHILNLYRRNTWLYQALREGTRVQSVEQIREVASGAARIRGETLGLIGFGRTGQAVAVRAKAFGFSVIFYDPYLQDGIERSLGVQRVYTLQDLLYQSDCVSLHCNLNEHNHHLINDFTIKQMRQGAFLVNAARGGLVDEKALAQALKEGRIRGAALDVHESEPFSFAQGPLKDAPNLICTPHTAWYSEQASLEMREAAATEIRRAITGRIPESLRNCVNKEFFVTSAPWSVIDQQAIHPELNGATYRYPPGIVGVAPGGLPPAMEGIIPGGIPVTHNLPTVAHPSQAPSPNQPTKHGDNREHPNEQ

B1: FLAG-Suz12 1–138 (recombinant truncated Suz12, N-terminal region) (domain or fragment, human, UniProt Q15022 1-138, looked up)
chain: MAPQKHGGGGGGGSGPSAGSGGGGFGGSAAVAAATASGGKSGGGSCGGGGSYSASSSSSAAAAAGAAVLPVKKPKMEHVQADHELFLQAFEKPTQIYRFLRTRNLIAPIFLHRTLTYMSHRNSRTNIKRKTFKVDDML
notes: the methods call the cloned PRC2 components human
As for B1, the binding result with GST-CTBP2 was “binds”.

B2: GST- or His6-tagged recombinant CTBP2, wild type (the two copies of the in vitro self-binding assay) (natural protein)
chain: not shown
notes: Two differently tagged copies of one protein; each copy carries one tag; The same constructs stand singly as m31 (His6) and m33 (GST); also called recombinant wild-type Ctbp2; source: E. coli BL21 DE3 pLysS, purified (glutathione Sepharose 4B or Ni-NTA agarose)
In the case of B2, in series [1], the binding result was “binds”.
